Measurements: a protein production outcome set (Wang et al. 2014)

Experiment: label from the status in PepcDB records

| Sequence | protein production |
| --- | --- |
| MDPHVSHSAHLFSLRIAHALNEACVKDRYSFKRFGQDLLAGLTVGIIAIPLAMALAIASGVPPQYGLYTAIVGGFIIAMTGGSRYSVSGPTAAFVVLLYPIAQQFGLAGLLIATVMSGMMLVAMAMLRLGRLILYIPESVTLGFTAGIGVVIATLQLKDFFGLQIEHMPEQYFAKLMALGQALPSLHLPSLFIAAATLATMLLWPRLKIPVPAHLPAIALGSILALILNAMGAEIETIGTRFHYQLTDGGIGSGIPAVLPHFEWPWLQTGPNGQAFEFNLAAFQALLPAAFAIAMLGAIESLLCAVVLDGMTGKRHSANSELLGQGIGNIIAPFFGGIPATAAIARSAANVKAGAQSPIASMIHALVVLIGLVALAGILAYLPMSAMAALLLVVAWNMSEAPKAVHLLKTAPTSDILVFLSCFSLTVIFDMVIAISVGIILAALLFMKEIAEMTKLYDISSNKRYVDQSLPADWAVLKINGPLFFAAADRIFAEIASLTQDKQVIVLYLDGVSILDAGGLAALSKLIEKCKLNQTKLLITDLQFQPIRTLAKAKIQPVEGVLKFYPTLREALTEAPSPELEATPEATD | failed |
| MDPKSCENSSDVKGQTSDSVSKKVLIEEEEDVKKPQQGKENDSRMAKDVVSCSSNISAHVVHEEVADNVTAVSCNEAESDISKAKAKEFHTIDLSGVGERICRICHFGSDQSPEASGDDKSVSPELIEIGCKCKNELGLAHFHCAEAWFKLRGNR | failed |
| MDPSQFNPTYIPGSPQMLTEENSRDDSGASQISSETLIKNLSNLTINASSESVSPLSEALLRRESVGAAVLREIEDEWLYSRRGVRTLLSVQREKMARLRYMLLGGVRTHERRPTNKEPKGVKKESRPFKCPCSFCVSNGWDPSENARIGNQDTKPLQP | failed |
| MDPTVSLQLSVDRSSPVPLYFQLSQQLEAAIEHGTLTPGSLLGNEIELAARLGLSRPTVRQAIQSLVDKGLLVRRRGVGTQVVHSQVKRPLELSSLYDDLEAAGQRPATQVLLNTLVPASAEVAAALGVAEGSDVHQVERLRLAHGEPMAYLCNYLPTGLLGLDSEQLEATGLYRLMRAAGITLHSARQSVGARAATAVEGERLGEPEGAPLLTMQRTTFDDTGRAVEFGTHTYRASRYSFEFQLLVRP | failed |
| MDQFEYIITLEFGNQNQVESAYQIFKSIPKKLKAKSIGEESIKSNNQDWQDWRVCDLEIDMITDFKNQTSKEEESDLITSQYLGHGIIRLFKLSNANNTLNEKEILTIPGDDTMICILFVPTYFTVHDLLHFYIGDDIVNKQVSNFRILRNQQKGMGFNFTVLIKFRNALDAKNFKEEFNGKSFSRMDPETCHVISVKEIVFQKKLFQRPAANEDFPYLLTDPFTVKKKKELVKVELPTCPVCLERMDSETTGLVTIPCQHTFHCQCLNKWKNSRCPVCRHSSLRLSRESLLKQAGDSAHCATCGSTDNLWICLICGNVGCGRYNSKHAIKHYEETLHCFAMDIRTQRVWDYAGDNYVHRLVQNEVDGKLVEVGGSGDDDNNDIGNSDELQNVVYGNRSKNGEKSNSNKKDGELAANFLRHREYHLEYVQVLISQLESQREYYELKLQEKDQTASDSSNVESLKKSMEDLKLQFQVTQKEWQKREMAQKSKLEEDMLVIEGLQANLDHLSKKQEQLERENKALEESKQDLEEQVKDLMFYLDSQEKFKDADESVKEGTILIQQPHGAAQASKSKKKRNKNKKAGK | failed |
| MDQKEAPSFTEASVHDPSVIKVEDTFYVFGSHLAAAKTEDLRNWTQIATHVHEGNPLIPNVFVELAEAFEWANSNTLWAADVIQLEDGRFYMYYNACQGDAPRSALGVAVADDIEGPYENLGVFLKSGMWGEESPDGTIYDANVHPNAIDPHVFFDEEGKLWMVYGSYSGGIFILEMDPDTGFPLPGQGYGTHLMGGNHSRIEAPYIHYDKETEYYYLYVTFGGLDSTGGYNMRVARSKQPDGPYVDGEGHLMSEVRGAPGTLFDDASIEPYGVKQMGNFLFKRELGERGTGYVSPGHNSVYYDDEVDKIFLFFHTRFPERGEAHEIRVHQMFMNRKGWPVIAPYRYTGESLEKVKAKEVIGDYQWINHGKEISAEIKESVTVRLEKNHKVLGDVTGKWKKVGDYHVELQIDGETYYGVFLRQWDPVAEREVMTFTALSEEGIAIWGSQLEEKTDNEIVDAVYDDLTLEGTIISDVELPTRGMRQTTIAWSSSHEEVLSSSGKVNRPEIGEDDVVVSLTATISKGSAERIKTFELVVPGQTEGGLVAHYPLNGTLENAVDDARFGSGTVTGNRIDNPGGTIAFEQGIDGEAAVFDGTTGIRLPNGLISRNTYTVSFWLNPEQLTEFTTAFFAARSEHHWLSFVPRGHSGMNHDTMLWAGSAQWYDAGTGVKLPVGEWSHVAFSVDNGEIVIYLNGEERFRGENFPNLFTTPNAYFALGVNHWDAPFQGMIDELRIYDGVALTREEIVHLAKQKLEHHHHHH | not failed |
| MDQLFRYPLHQIPLVAMAIIIALSVHEFAHAYVAYKFGDDTAKRQGRLTLSPMAHLDPIGMIAVLILGFGWARRVPVNPYNFKRPRLAGILVSIAGPISNLILSAIGLIIWYSLLTFGVLDSIPFAVADTLAQFFQIFIMLNIVLLVFNLLPIPPLDGYRVVEDLAPTNIRAKMTQYEKYGAIALLILVITPLSNYTIQPIFSVVIPYVFAFLNSIIAPIFGLL | failed |
| MDQLNKITPTGTEKVSESSCNKLEETCTKCGKNIYKKVTILGIDRIVKTMCECESKAWHEKRQHEEMLKKQNRLNELITNSLMDEKFRESNFENWDFNKGSRSMYNLGRRYADNFKECKQQGLGLLIYGSAGNGKTYLASAIANELLKQYIPVVCVSINGLLSRIQKTYNSWGKEAESDIIRSFINADLLIIDDLGTEKSSEWSRSMIYNIVDSRYRSKLPLIITSNLEINPSKRHGVLADQYHERTESRIFEMCTPVENTSKSIRIEEAKKKTELLRKILY | failed |
| MDQTAEEKMVRERIRKKVNEVSSASQSLLSPVQDHINFTLQKAYFKCAYECFDRTRTHAEISRCAESCSVPITNAQNYFDNEMSVFQERLNRSLVVCQDKFEVAKQQKTRSEAVNDLEHCVNQTVDEAVKTLPNLVSRMKKALSITD | failed |
| MDRGGMKHREGGPGPRTEMSGYSVYEEENERLTENLKMKTSALKSLSIDIGNEVKYHNKMLGEMDSDFDSTGGLLGSTMGRLKILSRGSQAKLLCYMMLFAFFVFFVIYWFIKLR | failed |
| MDRIQEMTLFAALAGQTSFTGVARHVGLSTATVTRAVASLESRLGILLVVRTTRNMRLTKAGQRFAEDCRRLLADLSEAENAAAGVHALPAGTLTVTAPQMFGALHVTPVLTRFLSEYPAVDIRAILVDRVVSMLDEGVDVAVRIGALRDSSLTAIRVGSVRRMVCASPVYLTQHGTPRHPDDLQQHATISTSAPERPPHWAFRVDDQDYSVNVASRLSLTSFQASINAALQHWGLTQVPHYQIREHLHNGRLVCVLEDFEIAPEPVHVVYSEGRRGSSRVRSFVDFCVSALREDLQFEAAG | failed |
| MDRMWSPWRSAYVSEANDREPTDDESIFTALLREERDEENLILWRGEHVFVIMNRHPYNSGHLLILPYREVTQYDALNAPEQQALTAALDRCMGWLREAVSPDGFNVGMNLGRAAGAGIPDHLHAHVVPRWDGDTNFMATTANTKVLPEDLQTTYGKLRAAMAPDARDTTKPAAQKPSE | failed |
| MDRMYEQNQMPHNNEAEQSVLGSIIIDPELINTTQEVLLPESFYRGAHQHIFRAMMHLNEDNKEIDVVTLMDQLSTEGTLNEAGGPQYLAELSTNVPTTRNVQYYTDIVSKHALKRRLIQTADSIANDGYNDELELDAILSDAERRILELSSSRESDGFKDIRDVLGQVYETAEELDQNSGQTPGIPTGYRDLDQMTAGFNRNDLIILAARPSVGKTAFALNIAQKVATHEDMYTVGIFSLEMGADQLATRMICSSGNVDSNRLRTGTMTEEDWSRFTIAVGKLSRTKIFIDDTPGIRINDLRSKCRRLKQEHGLDMIVIDYLQLIQGSGSRASDNRQQEVSEISRTLKALARELECPVIALSQLSRGVEQRQDKRPMMSDIRESGSIEQDADIVAFLYRDDYYNRGGDEDDDDDGGFEPQTNDENGEIEIIIAKQRNGPTGTVKLHFMKQYNKFTDIDYAHADMM | failed |
| MDRNLKIFITVMLILSVISQFLPFKRDAVSLINVITNLAAFMGLSYACIYSRKVYPHLYLTLLLLSAAQFFSFLGDFTWFILESILSLNPFPSVADLFYLLYYPIFAAGIFTIPIKRYSDLRSIIDLLIILVASASAAWVFLLEPTVFAGGDFTEVLVSTLYVLGDLLIVFMIMDLIINKLGHLRSRTLHVFLASIIILLAADISFTYQNLTGIYAGGTPQDLLWAFSYILLLIAVNEFFKEDWSKPLYVEKKVTAVTYTPYIFIILFYLLTAYSVIKGGAEKSTVLLVSLGFIIVLFILRQHLSMKENMALLNDVENERRRAENYLEVAGSLIMVLDEKTRVKLINRRGLEILECDAGEVAGKNWFMTFVPPEDRGWREKLYTEKISSGSKGYHLTGEILTCKGDRKTVTWHVVFLREDGEFRGSIISGDDITELQRATRALEMSEMRYREIFELAPSPIISVGDDLIIRDCNRRAESVLGYQRGELIGRNLMDLIHPEDAGEDFEGERRLLRSNGDVIYADIGVARVGDERIIIIEDQTEIRRSLQEKELLLREIHHRVKNNLQIISSLLSIQERQLESEELSDVLRESRERIRSIALVHEHLYRSTNLRTIRIRNYLNNILSKLSQGQTHGKDVRISSSIEDLEFNLETSLPIGLMVNELVSNSLKHSGADNITVELRSLNGTLELTVKDDGIGLESPEVLEKSGSMGWYLIRALTDQLDGELKIETEDGLSVSLRFRELGYRERY | failed |
| MDRPERSEVLSPEDFLQAMPIGKTASILDLGAGTGFLTIPAAKLVDNTVFALDLDAKMLELIESKAKEAGLANVETLEASMDDIPLEANSVDVVLASLVLHEADSLADVLREVSRVVKTGGYFASLEFDTKGTDLKGPPMEIQISAEKLKEELAGFGFEVVKNWQLDEGMYVSIAVKKLEHHHHHH | not failed |
| MDRRHEIYEWFRINRFKVDMTATCLLILLFGPVYLVADRPWLFLLSCSLLLPLAWRRTRPAVAAGVVILVCLVQWAVAAEPVAGQIAVPLVIYATAAYGPAWASRTVLLAGLLGGVMLTTRLFSTTAESGILGLTIGALYTVLIWMLVLVSWTLGDLTRVRRLQLQALEDRTRRLEVEQMQERKLAAADERSHIAREMHDIVAHSLSVIITQADGARYAAAAKPELATEALATIAATGRDSLGEMRRLLGVLRSDDDSPTRPQPRLSDLDELLLGFRAATLQVTFEQSGAPRRALPAGAELTAYRIIQEALTNVMKHAGPRATAAVTLAWQARGLQVDVVDDGRGAAADPPTAGGGNGLRGMGERVSLYDGSLTAGPEQGGGFRVSAFIPYSEA | failed |
| MDRRRFLVGLLGLGLARGQGLRVEEVVGGLEVPWALAFLPDGGMLIAERPGRIRLFREGRLSTYAELSVYHRGESGLLGLALHPRFPQEPYVYAYRTVAEGGLRNQVVRLRHLGERGVLDRVVLDGIPARPHGLHSGGRIAFGPDGMLYVTTGEVYERELAQDLASLGGKILRLTPEGEPAPGNPFLGRRGARPEVYSLGHRNPQGLAWHPKTGELFSSEHGPSGEQGYGHDEVNLIVPGGNYGWPRVVGRGNDPRYRDPLYFWPQGFPPGNLAFFRGDLYVAGLRGQALLRLVLEGERGRWRVLRVETALSGFGRLREVQVGPDGALYVTTSNRDGRGQVRPGDDRVLRLL | not failed |
